# Experimental data reported in publication PMC12421383, “Autophosphorylation of conserved yeast and human casein kinase 1 isozymes regulates Elongator-dependent tRNA modifications” (Nucleic Acids Research, 2025).
# B1: Hrr25 1-394, autophosphorylated (domain or fragment, Saccharomyces cerevisiae (budding yeast), UniProt P29295 1-394, looked up)
# chain: MDLRVGRKFRIGRKIGSGSFGDIYHGTNLISGEEVAIKLESIRSRHPQLDYESRVYRYLSGGVGIPFIRWFGREGEYNAMVIDLLGPSLEDLFNYCHRRFSFKTVIMLALQMFCRIQYIHGRSFIHRDIKPDNFLMGVGRRGSTVHVIDFGLSKKYRDFNTHRHIPYRENKSLTGTARYASVNTHLGIEQSRRDDLESLGYVLIYFCKGSLPWQGLKATTKKQKYDRIMEKKLNVSVETLCSGLPLEFQEYMAYCKNLKFDEKPDYLFLARLFKDLSIKLEYHNDHLFDWTMLRYTKAMVEKQRDLLIEKGDLNANSNAASASNSTDNKSETFNKIKLLAMKKFPTHFHYYKNEDKHNPSPEEIKQQTILNNNAASSLPEELLNALDKGMENLR
# modifications: autophosphorylation sites mapped by MS: the sites detected in full length Hrr25 (Thr27, Ser31, Ser143, Thr144, Ser181, Ser191, Ser198) and in addition Ser41, Ser44, Ser60, Ser153, Thr161, Ser236, Thr239, Ser242, Tyr266, Ser317, Thr326, Ser330, Thr346, Ser376
# notes: source: E. coli pRARE cells, purified (NiNTA, gel filtration); incubated with 1 mM ATP for 1 h at 30°C
# B2: full-length (FL) yeast Hrr25, nonphosphorylated (enzyme, Saccharomyces cerevisiae (budding yeast), UniProt P29295 1-494, looked up)
# chain: MDLRVGRKFRIGRKIGSGSFGDIYHGTNLISGEEVAIKLESIRSRHPQLDYESRVYRYLSGGVGIPFIRWFGREGEYNAMVIDLLGPSLEDLFNYCHRRFSFKTVIMLALQMFCRIQYIHGRSFIHRDIKPDNFLMGVGRRGSTVHVIDFGLSKKYRDFNTHRHIPYRENKSLTGTARYASVNTHLGIEQSRRDDLESLGYVLIYFCKGSLPWQGLKATTKKQKYDRIMEKKLNVSVETLCSGLPLEFQEYMAYCKNLKFDEKPDYLFLARLFKDLSIKLEYHNDHLFDWTMLRYTKAMVEKQRDLLIEKGDLNANSNAASASNSTDNKSETFNKIKLLAMKKFPTHFHYYKNEDKHNPSPEEIKQQTILNNNAASSLPEELLNALDKGMENLRQQQPQQQVQSSQPQPQPQQLQQQPNGQRPNYYPEPLLQQQQRDSQEQQQQVPMATTRATQYPPQINSNNFNTNQASVPPQMRSNPQQPPQDKPAGQSIWL
# notes: cloned into pFastBacHT A with a TEV cleavage site after the tag; also called FL Hrr25; Hrr25 WT; source: Trichoplusia ni High Five cells, purified (NiNTA, gel filtration)
# B3: full-length (FL) yeast Hrr25, autophosphorylated (enzyme, Saccharomyces cerevisiae (budding yeast), UniProt P29295 1-494, looked up)
# chain: MDLRVGRKFRIGRKIGSGSFGDIYHGTNLISGEEVAIKLESIRSRHPQLDYESRVYRYLSGGVGIPFIRWFGREGEYNAMVIDLLGPSLEDLFNYCHRRFSFKTVIMLALQMFCRIQYIHGRSFIHRDIKPDNFLMGVGRRGSTVHVIDFGLSKKYRDFNTHRHIPYRENKSLTGTARYASVNTHLGIEQSRRDDLESLGYVLIYFCKGSLPWQGLKATTKKQKYDRIMEKKLNVSVETLCSGLPLEFQEYMAYCKNLKFDEKPDYLFLARLFKDLSIKLEYHNDHLFDWTMLRYTKAMVEKQRDLLIEKGDLNANSNAASASNSTDNKSETFNKIKLLAMKKFPTHFHYYKNEDKHNPSPEEIKQQTILNNNAASSLPEELLNALDKGMENLRQQQPQQQVQSSQPQPQPQQLQQQPNGQRPNYYPEPLLQQQQRDSQEQQQQVPMATTRATQYPPQINSNNFNTNQASVPPQMRSNPQQPPQDKPAGQSIWL
# modifications: autophosphorylation sites mapped by MS: phospho-Thr27, Ser31, Ser143, Thr144, Ser181, Ser191, Ser198, Ser438, Thr449, Thr453, Ser461, Ser470, Ser491
# notes: Hrr25, casein kinase 1 of Saccharomyces cerevisiae, full length, after autophosphorylation with ATP; also called pHrr25; autophosphorylated FL kinase; source: Trichoplusia ni High Five cells, purified (NiNTA, gel filtration); incubated with 1 mM ATP for 1 h at 30°C
# B4: GST-tagged Sit4 (enzyme, Saccharomyces cerevisiae (budding yeast), UniProt P20604 1-311, looked up)
# chain: MVSRGPDEWLETIKKCQALTENEMKQLCEMVKELLMEESNIQPVQTPVTVCGDIHGQFHDLLELFRTAGGFPDDINYIFLGDYVDRGYYSLETFTLLMCLKVKYPAKITLVRGNHESRQITQVYGFYEECLNKYGSTTVWKYCCQVFDFLTLAAIIDGKILCVHGGLSPEIRMLDQIRVLSRAQEVPHEGGFSDLLWSDPDNVEAWQVSPRGAGWLFGSKVAREFNHVNGLNLIARAHQLVMEGFKYHFPEKDVVTVWSAPNYCYRCGNVASVMKVDEDLEPTFKIFSAVPDDYIRESTANHNNQRAGYFL
# notes: Sit4, phosphatase of Saccharomyces cerevisiae, expressed from the pETM30 vector; also called GST-Sit4; Sit4 phosphatase
# Assays:
# Assay in all cases: pull-down; 20 μg GST-tagged bait mixed with equimolar Hrr25 variant, GST Sepharose 4B, 1 h at 4°C; 20 mM Tris pH 7.5, 150 mM NaCl, 0.5% Tween 20, 2 mM DTT, 2 mM MgCl2; three washes; SDS-PAGE and WB with Hrr25-specific antibodies
# Conditions in all cases: both partners purified
# GST-Elp1 1-734 = target: T1, GST-Elp1 1-734 (Saccharomyces cerevisiae (budding yeast), UniProt Q06706 1-734)
# T1 construct: also called truncated form of GST-Elp1
# T1 sequence (looked up): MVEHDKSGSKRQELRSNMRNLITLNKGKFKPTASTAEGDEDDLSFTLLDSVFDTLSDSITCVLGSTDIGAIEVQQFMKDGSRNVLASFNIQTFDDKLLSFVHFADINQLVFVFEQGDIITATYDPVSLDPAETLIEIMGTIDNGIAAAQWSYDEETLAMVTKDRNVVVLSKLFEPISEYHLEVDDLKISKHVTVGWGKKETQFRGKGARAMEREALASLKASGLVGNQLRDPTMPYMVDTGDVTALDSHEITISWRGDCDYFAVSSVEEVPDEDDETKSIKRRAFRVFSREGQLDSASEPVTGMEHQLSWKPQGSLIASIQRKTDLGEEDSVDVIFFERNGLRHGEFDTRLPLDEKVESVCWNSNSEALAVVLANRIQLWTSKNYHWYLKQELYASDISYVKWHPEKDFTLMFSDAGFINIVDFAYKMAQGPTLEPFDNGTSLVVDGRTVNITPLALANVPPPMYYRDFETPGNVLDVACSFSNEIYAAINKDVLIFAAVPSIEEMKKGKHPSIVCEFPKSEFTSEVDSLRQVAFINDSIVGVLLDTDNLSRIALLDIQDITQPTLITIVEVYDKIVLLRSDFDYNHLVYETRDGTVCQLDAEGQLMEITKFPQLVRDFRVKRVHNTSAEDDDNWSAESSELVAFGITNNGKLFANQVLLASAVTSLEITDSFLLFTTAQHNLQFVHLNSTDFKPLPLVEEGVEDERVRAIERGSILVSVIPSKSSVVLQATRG
# FL GST-Elp1 = target: T2, FL GST-Elp1 (Saccharomyces cerevisiae (budding yeast), UniProt Q06706 1-1349)
# T2 construct: Elp1, Elongator subunit of Saccharomyces cerevisiae, full length, expressed from the pETM30 vector; also called Elongator subunit Elp1
# T2 sequence (looked up): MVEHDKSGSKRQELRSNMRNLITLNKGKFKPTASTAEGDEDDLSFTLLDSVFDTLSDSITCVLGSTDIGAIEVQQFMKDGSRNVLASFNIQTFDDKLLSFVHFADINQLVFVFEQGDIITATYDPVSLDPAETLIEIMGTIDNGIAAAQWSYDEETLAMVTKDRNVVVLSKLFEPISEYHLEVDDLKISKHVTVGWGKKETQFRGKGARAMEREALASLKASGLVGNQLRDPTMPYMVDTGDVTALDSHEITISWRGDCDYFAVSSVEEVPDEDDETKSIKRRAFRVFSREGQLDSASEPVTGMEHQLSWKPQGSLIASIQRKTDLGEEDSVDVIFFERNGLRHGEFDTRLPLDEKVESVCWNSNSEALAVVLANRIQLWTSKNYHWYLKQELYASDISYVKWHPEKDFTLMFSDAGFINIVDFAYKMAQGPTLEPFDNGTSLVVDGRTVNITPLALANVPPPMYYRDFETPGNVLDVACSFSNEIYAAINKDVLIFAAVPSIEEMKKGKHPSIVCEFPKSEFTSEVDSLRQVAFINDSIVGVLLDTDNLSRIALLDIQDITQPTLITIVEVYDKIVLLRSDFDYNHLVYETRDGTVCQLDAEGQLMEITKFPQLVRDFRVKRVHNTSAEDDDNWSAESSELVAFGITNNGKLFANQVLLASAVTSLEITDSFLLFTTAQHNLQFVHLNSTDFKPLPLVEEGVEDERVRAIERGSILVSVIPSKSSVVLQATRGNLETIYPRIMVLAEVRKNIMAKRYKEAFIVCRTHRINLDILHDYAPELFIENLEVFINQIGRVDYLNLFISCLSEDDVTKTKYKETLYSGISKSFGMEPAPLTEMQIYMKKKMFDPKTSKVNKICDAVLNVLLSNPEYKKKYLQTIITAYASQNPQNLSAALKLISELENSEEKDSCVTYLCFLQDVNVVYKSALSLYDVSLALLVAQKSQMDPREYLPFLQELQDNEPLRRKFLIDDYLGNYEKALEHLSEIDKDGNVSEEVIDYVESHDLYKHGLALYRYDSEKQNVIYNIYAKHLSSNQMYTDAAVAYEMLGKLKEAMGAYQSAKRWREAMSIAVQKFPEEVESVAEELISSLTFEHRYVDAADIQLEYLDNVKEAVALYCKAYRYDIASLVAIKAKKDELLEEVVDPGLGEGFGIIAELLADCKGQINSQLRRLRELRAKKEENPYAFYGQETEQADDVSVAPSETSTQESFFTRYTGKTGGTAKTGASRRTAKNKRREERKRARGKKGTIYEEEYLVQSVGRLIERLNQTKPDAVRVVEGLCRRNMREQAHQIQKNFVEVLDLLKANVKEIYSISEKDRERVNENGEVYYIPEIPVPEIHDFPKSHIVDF
# [1] = target: B2
# [2] = target: T3, Hrr25 1-394, nonphosphorylated (Saccharomyces cerevisiae (budding yeast), UniProt P29295 1-394)
# T3 construct: pETM11 with a TEV cleavage site after the tag; also called P/Q truncation; truncation variant lacking the P/Q-rich region; source: E. coli pRARE cells, purified (NiNTA, gel filtration)
# T3 sequence (looked up): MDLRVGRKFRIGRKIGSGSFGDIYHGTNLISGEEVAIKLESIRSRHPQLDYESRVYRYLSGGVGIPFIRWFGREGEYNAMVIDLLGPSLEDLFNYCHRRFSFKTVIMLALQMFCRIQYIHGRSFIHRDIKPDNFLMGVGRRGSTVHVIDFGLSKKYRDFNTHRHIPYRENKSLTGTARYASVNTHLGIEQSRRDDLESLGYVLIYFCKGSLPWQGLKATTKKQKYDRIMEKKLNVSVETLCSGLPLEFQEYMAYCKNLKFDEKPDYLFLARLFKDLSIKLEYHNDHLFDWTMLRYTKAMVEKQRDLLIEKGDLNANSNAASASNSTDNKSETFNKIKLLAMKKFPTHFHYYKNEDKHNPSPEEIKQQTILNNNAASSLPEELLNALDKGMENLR
binder,measurement,setting,value
B1,binding result,GST-Elp1 1-734,binds
B2,binding result,FL GST-Elp1,binds
B3,binding result,FL GST-Elp1,binds
B4,binding result,[1],binds
same,binding result,[2],binds
